Data: doi:10.1101/2024.01.29.577677

biological target: human ACE2 (human) (UniProt Q9BYF1); assay: SPR

Substance | fold increase in affinity relative to BA.2.86 RBD
BA.2.86-D450N RBD (domain or fragment) | 3 fold
BA.2.86-H445V RBD (domain or fragment) | 3 fold
BA.2.86-P486F RBD (domain or fragment) | 3 fold
